Biological target: the molecule itself
Test: cryo-EM structure; apo TRPV3 T96A in PMAL-C8 amphipol, 50 mM Tris pH 8, 150 mM NaCl; Titan Krios 300 keV; C4 symmetry, ~3.4 Å

B1: full-length human TRPV3 containing the point mutation T96A (natural protein, UniProt Q8NET8-1 1-790, looked up)
chain: MKAHPKEMVPLMGKRVAAPSGNPAILPEKRPAEITPTKKSAHFFLEIEGFEPNPTVAKTSPPVFSKPMDSNIRQCISGNCDDMDSPQSPQDDVTEAPSNPNSPSAQLAKEEQRRKKRRLKKRIFAAVSEGCVEELVELLVELQELCRRRHDEDVPDFLMHKLTASDTGKTCLMKALLNINPNTKEIVRILLAFAEENDILGRFINAEYTEEAYEGQTALNIAIERRQGDIAALLIAAGADVNAHAKGAFFNPKYQHEGFYFGETPLALAACTNQPEIVQLLMEHEQTDITSRDSRGNNILHALVTVAEDFKTQNDFVKRMYDMILLRSGNWELETTRNNDGLTPLQLAAKMGKAEILKYILSREIKEKRLRSLSRKFTDWAYGPVSSSLYDLTNVDTTTDNSVLEITVYNTNIDNRHEMLTLEPLHTLLHMKWKKFAKHMFFLSFCFYFFYNITLTLVSYYRPREEEAIPHPLALTHKMGWLQLLGRMFVLIWAMCISVKEGIAIFLLRPSDLQSILSDAWFHFVFFIQAVLVILSVFLYLFAYKEYLACLVLAMALGWANMLYYTRGFQSMGMYSVMIQKVILHDVLKFLFVYIVFLLGFGVALASLIEKCPKDNKDCSSYGSFSDAVLELFKLTIGLGDLNIQQNSKYPILFLFLLITYVILTFVLLLNMLIALMGETVENVSKESERIWRLQRARTILEFEKMLPEWLRSRFRMGELCKVAEDDFRLCLRINEVKWTEWKTHVSFLNEDPGPVRRTDFNKIQDSSRNNSKTTLNAFEEVEEFPETSV
notes: Transient receptor potential vanilloid channel 3 (TRPV3), human, full length, with the stabilising point mutation T96A; Homotetramer; Residues 1-117, which include T96A, were not resolved in the reconstructions; No removal of the FLAG tag is described; also called hTRPV3; TRPV3_(T96A); source: Sf9 insect cells (baculovirus), purified (anti-FLAG resin, size exclusion), reconstituted in PMAL-C8 …
  stoichiometry N: 4
